Values quoted from earlier work, collected in patent US20200069786A1, “COMPOSITION AND PROCESS FOR PREPARING VACCINE” (TREOS BIO ZRT., priority 2018, published 2020).
Positions count from the first letter of the chain named. Like-named read-outs stand apart in the source and are kept apart here.

System: TSA
[1] = TSA expression rate in PROSTATE cancer
[2] = TSA expression rate in LEUKEMIAS
[3] = TSA expression rate in MELANOMA

B1: SPATA19 (protein, UniProt Q7Z5L4 25-167, looked up)
Spermatogenesis-associated …: SSDIDVVESEAVSVLHHWLKKTEEEASRGIKEKLSINHPSQGVREKMSTDSPPTHGQDIHVTRDVVKHHLSKSDLLANQSQEVLEERTRIQFIRWSHTRIFQVPSEMTEDIMRDRIEQVRRSISRLTDVSAQDFSMRPSSSDC
Expression Rate (ER) % [1]: 88%

B2: PAGE2 (protein, UniProt Q7Z2X7 1-111, looked up)
P antigen family member 2: MSELLRARSQSSERGNDQESSQPVGSVIVQEPTEEKRQEEEPPTDNQGIAPSGEIENQAVPAFQGPDMEAFQQELALLKIEDEPGDGPDVREGIMPTFDLTKVLEAGDAQP
Expression Rate (ER) % [2]: 4%

B3: TMEM31 (protein, UniProt Q5JXX7 1-168, looked up)
Transmembrane protein 31: MRLTEKSEGEQQLKPNNSNAPNEDQEEEIQQSEQHTPARQRTQRADTQPSRCRLPSRRTPTTSSDRTINLLEVLPWPTEWIFNPYRLPALFELYPEFLLVFKEAFHDISHCLKAQMEKIGLPIILHLFALSTLYFYKFFLPTILSLSFFILLVLLLLLFIIVFILIFF
Expression Rate (ER) % [3]: 63%

B4: XAGE-2 (protein, UniProt Q96GT9 1-111, looked up)
X antigen family member 2: MSWRGRSTYRPRPRRSLQPPELIGAMLEPTDEEPKEEKPPTKSRNPTPDQKREDDQGAAEIQVPDLEADLQELCQTKTGDGCEGGTDVKGKILPKAEHFKMPEAGEGKSQV
Expression Rate (ER) % (TSA expression rate in HEAD and NECK): 6%
Expression Rate (ER) % [3]: 14%
Expression Rate (ER) % (TSA expression rate in PEDIATRIC): 14%

B5: BAGE-2 (protein, UniProt Q86Y30 18-109, looked up)
B melanoma antigen 2: RLMKEESPVVSWRLEPEDGTALDVHFVSTLEPLSNAVKRNVPRCIIILVLQEPTAFRISVTSSCFVQNTLTKLLKDRRKMQTVQCATARETS
Expression Rate (ER) % [3]: 23%

B6: BAGE-3 (protein, UniProt Q86Y29 18-109, looked up)
B melanoma antigen 3: B5 B melanoma antigen 2 with A55P, R89Q
Expression Rate (ER) % [3]: 14%

B7: MAGE-A5 (protein, UniProt P43359 1-124, looked up)
Putative melanoma-associated …: MSLEQKSQHCKPEEGLDTQEEALGLVGVQAATTEEQEAVSSSSPLVPGTLGEVPAAGSPGPLKSPQGASAIPTAIDFTLWRQSIKGSSNQEEEGPSTSPDPESVFRAALSKKVADLIHFLLLKY
TSA Expression Rate (ER) (BREAST): 9%
Expression Rate (ER) % (TSA expression rate in CRC): 7%
Expression Rate (ER) % [3]: 25%

B8: TEX14 (protein, UniProt Q8IWB6 1-1497, looked up)
Inactive …: MSRAVRLPVPCPVQLGTLRNDSLEAQLHEYVKQGNYVKVKKILKKGIYVDAVNSLGQTALFVAALLGLRKFVDVLVDYGSDPNHRCFDGSTPVHAAAFSGNQWILSKLLDAGGDLRLHDERGQNPKTWALTAGKERSTQIVEFMQRCASHMQAIIQGFSYDLLKKIDSPQRLVYSPSWCGGLVQGNPNGSPNRLLKAGVISAQNIYSFGFGKAMPWFQFYLTGATQMAYLGSLPVIGEKEVIQADDEPTFSFFSGPYMVMTNLVWNGSRVTVKELNLPTHPHCSRLRLADLLIAEQEHSSKLRHPYLLQLMAVCLSQDLEKTRLVYERITIGTLFSVLHERRSQFPVLHMEVIVHLLLQISDALRYLHFQGFIHRSLSSYAVHIISPGEARLTNLEYMLESEDRGVQRDLTRVPLPTQLYNWAAPEVILQKAATVKSDIYSFSMIMQEILTDDIPWKGLDGSVVKKAVVSGNYLEADVRLPKPYYDIVKSGIHVKQKDRTMNLQDIRYILKNDLKDFTGAQRTQPTESPRVQRYGLHPDVNVYLGLTSEHPRETPDMEIIELKEMGSQPHSPRVHSLFTEGTLDPQAPDPCLMARETQNQDAPCPAPFMAEEASSPSTGQPSLCSFEINEIYSGCLILEDDIEEPPGAASSLEADGPNQVDELKSMEEELDKMEREACCFGSEDESSSKAETEYSFDDWDWQNGSLSSLSLPESTREAKSNLNNMSTTEEYLISKCVLDLKIMQTIMHENDDRLRNIEQILDEVEMKQKEQEERMSLWATSREFTNAYKLPLAVGPPSLNYIPPVLQLSGGQKPDTSGNYPTLPRFPRMLPTLCDPGKQNTDEQFQCTQGAKDSLETSRIQNTSSQGRPRESTAQAKATQFNSALFTLSSHRQGPSASPSCHWDSTRMSVEPVSSEIYNAESRNKDDGKVHLKWKMEVKEMAKKAATGQLTVPPWHPQSSLTLESEAENEPDALLQPPIRSPENTDWQRVIEYHRENDEPRGNGKFDKTGNNDCDSDQHGRQPRLGSFTSIRHPSPRQKEQPEHSEAFQASSDTLVAVEKSYSHQSMQSTCSPESSEDITDEFLTPDGEYFYSSTAQENLALETSSPIEEDFEGIQGAFAQPQVSGEEKFQMRKILGKNAEILPRSQFQPVRSTEDEQEETSKESPKELKEKDISLTDIQDLSSISYEPDSSFKEASCKTPKINHAPTSVSTPLSPGSVSSAASQYKDCLESITFQVKTEFASCWNSQEFIQTLSDDFISVRERAKKLDSLLTSSETPPSRLTGLKRLSSFIGAGSPSLVKACDSSPPHATQRRSLPKVEAFSQHHIDELPPPSQELLDDIELLKQQQGSSTVLHENTASDGGGTANDQRHLEEQETDSKKEDSSMLLSKETEDLGEDTERAHSTLDEDLERWLQPPEESVELQDLPKGSERETNIKDQKVGEEKRKREDSITPERRKSEGVLGTSEEDELKSCFWKRLGWSESSRIIVLDQSDLSD
Expression Rate (ER) % [2]: 5%

B9: NR6A1 (protein, UniProt Q15406 1-480, looked up)
Nuclear receptor subfamily 6 …: MERDEPPPSGGGGGGGSAGFLEPPAALPPPPRNGFCQDELAELDPGTISVSDDRAEQRTCLICGDRATGLHYGIISCEGCKGFFKRSICNKRVYRCSRDKNCVMSRKQRNRCQYCRLLKCLQMGMNRKAIREDGMPGGRNKSIGPVQISEEEIERIMSGQEFEEEANHWSNHGDSDHSSPGNRASESNQPSPGSTLSSSRSVELNGFMAFREQYMGMSVPPHYQYIPHLFSYSGHSPLLPQQARSLDPQSYSLIHQLLSAEDLEPLGTPMLIEDGYAVTQAELFALLCRLADELLFRQIAWIKKLPFFCELSIKDYTCLLSSTWQELILLSSLTVYSKQIFGELADVTAKYSPSDEELHRFSDEGMEVIERLIYLYHKFHQLKVSNEEYACMKAINFLNQDIRGLTSASQLEQLNKRYWYICQDFTEYKYTHQPNRFPDLMMCLPEIRYIAGKMVNVPLEQLPLLFKVVLHSCKTSVGKE
Expression Rate (ER) % [1]: 25%

B10: FAM133A (protein, UniProt Q8N9E0 1-248, looked up)
Protein FAM133A: MGKRDNRVAYMNPIAMARWRGPTQSVGPTIQDYLNRPRPTWEEVKKQLENKKTGSKALAEFEEKMNENWKKELEKSREKLLSGNESSSKKRERKKKRKKKSCRSSSSSSSSDSSSSSSDSEDEEKKQGKRRKKKKNRSYKSSQSSTHESESESKESVKKKKKSKDETEKEKDVRSLSKKRKKSYPDDKPLSSESSSESDYEEDVQAKKKRRCEEREQAKEKVKKKKKKQHKKHSKKKKKKSGSSHKSR
Expression Rate (ER) % [2]: 83%

B11: PAGE5 (protein, UniProt Q96GU1 1-130, looked up)
P antigen family member 5: MQAPWAGNRGWAGTREEVRDMSEHVTRSQSSERGNDQESSQPVGPVIVQQPTEEKRQEEEPPTDNQGIAPSGEIKNEGAPAVQGTDVEAFQQELALLKIEDAPGDGPDVREGTLPTFDPTKVLEAGEGQL
Expression Rate (ER) % (TSA expression rate in CRC): 11%
Expression Rate (ER) % (TSA expression rate in Kidney): 44%
Expression Rate (ER) % [3]: 22%

B12: TSP50 (protein, UniProt Q9UI38 40-385, looked up)
Probable threonine protease …: AGEAPGALSTADPADQSVQCVPKATCPSSRPRLLWQTPTTQTLPSTTMETQFPVSEGKVDPYRSCGFSYEQDPTLRDPEAVARRWPWMVSVRANGTHICAGTIIASQWVLTVAHCLIWRDVIYSVRVGSPWIDQMTQTASDVPVLQVIMHSRYRAQRFWSWVGQANDIGLLKLKQELKYSNYVRPICLPGTDYVLKDHSRCTVTGWGLSKADGMWPQFRTIQEKEVIILNNKECDNFYHNFTKIPTLVQIIKSQMMCAEDTHREKFCYELTGEPLVCSMEGTWYLVGLVSWGAGCQKSEAPPIYLQVSSYQHWIWDCLNGQALALPAPSRTLLLALPLPLSLLAAL
Expression Rate (ER) % (TSA expression rate in CRC): 89%
Expression Rate (ER) % (TSA expression rate in GASTRIC cancer): 57%

B13: CTNNA2 (protein, UniProt P26232 1-953, looked up)
Catenin alpha-2: MTSATSPIILKWDPKSLEIRTLTVERLLEPLVTQVTTLVNTSNKGPSGKKKGRSKKAHVLAASVEQATQNFLEKGEQIAKESQDLKEELVAAVEDVRKQGETMRIASSEFADDPCSSVKRGTMVRAARALLSAVTRLLILADMADVMRLLSHLKIVEEALEAVKNATNEQDLANRFKEFGKEMVKLNYVAARRQQELKDPHCRDEMAAARGALKKNATMLYTASQAFLRHPDVAATRANRDYVFKQVQEAIAGISNAAQATSPTDEAKGHTGIGELAAALNEFDNKIILDPMTFSEARFRPSLEERLESIISGAALMADSSCTRDDRRERIVAECNAVRQALQDLLSEYMNNTGRKEKGDPLNIAIDKMTKKTRDLRRQLRKAVMDHISDSFLETNVPLLVLIEAAKSGNEKEVKEYAQVFREHANKLVEVANLACSISNNEEGVKLVRMAATQIDSLCPQVINAALTLAARPQSKVAQDNMDVFKDQWEKQVRVLTEAVDDITSVDDFLSVSENHILEDVNKCVIALQEGDVDTLDRTAGAIRGRAARVIHIINAEMENYEAGVYTEKVLEATKLLSETVMPRFAEQVEVAIEALSANVPQPFEENEFIDASRLVYDGVRDIRKAVLMIRTPEELEDDSDFEQEDYDVRSRTSVQTEDDQLIAGQSARAIMAQLPQEEKAKIAEQVEIFHQEKSKLDAEVAKWDDSGNDIIVLAKQMCMIMMEMTDFTRGKGPLKNTSDVINAAKKIAEAGSRMDKLARAVADQCPDSACKQDLLAYLQRIALYCHQLNICSKVKAEVQNLGGELIVSGTGVQSTFTTFYEVDCDVIDGGRASQLSTHLPTCAEGAPIGSGSSDSSMLDSATSLIQAAKNLMNAVVLTVKASYVASTKYQKVYGTAAVNSPVVSWKMKAPEKKPLVKREKPEEFQTRVRRGSQKKHISPVQALSEFKAMDSF
Expression Rate (ER) % [2]: 45%

B14: PAGE4 (protein, UniProt O60829 1-102, looked up)
P antigen family member 4: MSARVRSRSRGRGDGQEAPDVVAFVAPGESQQEEPPTDNQDIEPGQEREGTPPIEERKVEGDCQEMDLEKTRSERGDGSDVKEKTPPNPKHAKTKEAGDGQP
Expression Rate (ER) % (TSA expression rate in CRC): 33%
Expression Rate (ER) % [1]: 100%
